Experimental data: paper PMC8040518 (The Journal of Experimental Medicine, 2021)

Molecular target: LGTV E protein (strain TP21) in C-prM-E–transfected HEK-293T cells (Langat virus strain TP21, UniProt Q9IG40)
Assay: cell-based or functional assay

B1: POWV-80 mAb (antibody, V domains shown)
VH: EVKLVESEGGLVQPGSSMKVSCTASGFTFSHYYMAWVRQVPEKGLEWVANINYDGTSTYYLDSLKSRFIISRDNANNILYLQMSSLKSEDTAIYYCAREEGYGNPYPYWYFDVWGTGTTVTVSS
VL: QIVLTQSPAILSASPGEKVTMTCRASSSVSYMHWYQQKPGSSPKSWIYATSNLASGVPTRFSGSGSGTSYSLTISRVEAEDAATYYCQQRSSNPRTFGGGTKLEIK
**Q.** How did the “EC50 of neutralization of LGTV, FRNT in Vero cells” value turn out when B1 was run?
**A.** Its value is 10.4 µg/mL.
